# According to the supplement of paper PMC10567573:
# B1: KRT34 (parent)
# chain: YQSYFKTIEELQQKILCAKAENAR
# Variants of: B1
# Experiment: protein stability index of a GFP-peptide fusion (GPS, HEK-293T) (PSI 1-6); higher = more stable
# Details: c terminus: a fixed tail appended
# 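Also: lentivirally expressed fusions sorted by FACS into six bins by GFP to DsRed ratio, PSI derived from sequencing read proportions per bin multiplied by bin number.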
row,Variant,protein stability index
1,YQSYFKTIEELQVKILCAKAENAR,1.96
2,YQSYFKTIEELQYKILCAKAENAR,1.54
3,YQSYFKTIEELQQAILCAKAENAR,1.41
4,YQSYFKTIEELQQCILCAKAENAR,1.2
5,YQSYFKTIEELQQDILCAKAENAR,1.23
6,YQSYFKTIEELQQEILCAKAENAR,2.61
7,YQSYFKTIEELQQFILCAKAENAR,2
8,YQSYFKTIEELQQGILCAKAENAR,1.69
9,YQSYFKTIEELQQHILCAKAENAR,1.99
10,YQSYFKTIEELQQIILCAKAENAR,1.52
11,YQSYFKTIEELQQLILCAKAENAR,2.62
12,YQSYFKTIEELQQMILCAKAENAR,1.46
13,YQSYFKTIEELQQNILCAKAENAR,1.53
14,YQSYFKTIEELQQPILCAKAENAR,1.97
15,YQSYFKTIEELQQQILCAKAENAR,2.14
16,YQSYFKTIEELQQRILCAKAENAR,1.77
17,YQSYFKTIEELQQSILCAKAENAR,2.27
18,YQSYFKTIEELQQTILCAKAENAR,1.56
19,YQSYFKTIEELQQVILCAKAENAR,1.98
20,YQSYFKTIEELQQWILCAKAENAR,3.3
21,YQSYFKTIEELQQYILCAKAENAR,1.46
22,YQSYFKTIEELQQKCLCAKAENAR,1.16
23,YQSYFKTIEELQQKDLCAKAENAR,1.88
24,YQSYFKTIEELQQKELCAKAENAR,2.03

row,Variant,protein stability index
1,YQSYFKTIEELQQKFLCAKAENAR,1.6
2,YQSYFKTIEELQQKGLCAKAENAR,1.45
3,YQSYFKTIEELQQKHLCAKAENAR,1.87
4,YQSYFKTIEELQQKKLCAKAENAR,2.71
5,YQSYFKTIEELQQKLLCAKAENAR,1.95
6,YQSYFKTIEELQQKMLCAKAENAR,1.89
7,YQSYFKTIEELQQKNLCAKAENAR,2.23
8,YQSYFKTIEELQQKPLCAKAENAR,1.71
9,YQSYFKTIEELQQKQLCAKAENAR,1.71
10,YQSYFKTIEELQQKRLCAKAENAR,1.66
11,YQSYFKTIEELQQKSLCAKAENAR,1.81
12,YQSYFKTIEELQQKTLCAKAENAR,1.57
13,YQSYFKTIEELQQKWLCAKAENAR,2.2
14,YQSYFKTIEELQQKYLCAKAENAR,2.25
15,YQSYFKTIEELQQKIACAKAENAR,1.8
16,YQSYFKTIEELQQKICCAKAENAR,1.84
17,YQSYFKTIEELQQKIDCAKAENAR,1.96
18,YQSYFKTIEELQQKIECAKAENAR,2.63
19,YQSYFKTIEELQQKIFCAKAENAR,1.6
20,YQSYFKTIEELQQKIGCAKAENAR,2.02
21,YQSYFKTIEELQQKIHCAKAENAR,2.12
22,YQSYFKTIEELQQKIICAKAENAR,1.67
23,YQSYFKTIEELQQKIKCAKAENAR,1.92
24,YQSYFKTIEELQQKIMCAKAENAR,1.89

row,Variant,protein stability index
1,YQSYFKTIEELQQKINCAKAENAR,1.75
2,YQSYFKTIEELQQKIPCAKAENAR,1.41
3,YQSYFKTIEELQQKIQCAKAENAR,1.66
4,YQSYFKTIEELQQKIRCAKAENAR,2.02
5,YQSYFKTIEELQQKISCAKAENAR,1.97
6,YQSYFKTIEELQQKITCAKAENAR,1.72
7,YQSYFKTIEELQQKIWCAKAENAR,1.29
8,YQSYFKTIEELQQKIYCAKAENAR,2.28
9,YQSYFKTIEELQQKILAAKAENAR,2.56
10,YQSYFKTIEELQQKILDAKAENAR,1.84
11,YQSYFKTIEELQQKILEAKAENAR,2.39
12,YQSYFKTIEELQQKILFAKAENAR,1.97
13,YQSYFKTIEELQQKILGAKAENAR,2.32
14,YQSYFKTIEELQQKILHAKAENAR,2.06
15,YQSYFKTIEELQQKILIAKAENAR,2.16
16,YQSYFKTIEELQQKILKAKAENAR,2.51
17,YQSYFKTIEELQQKILLAKAENAR,2.6
18,YQSYFKTIEELQQKILMAKAENAR,2.11
19,YQSYFKTIEELQQKILNAKAENAR,1.88
20,YQSYFKTIEELQQKILPAKAENAR,2.25
21,YQSYFKTIEELQQKILQAKAENAR,2.56
22,YQSYFKTIEELQQKILRAKAENAR,2.42
23,YQSYFKTIEELQQKILSAKAENAR,2.19
24,YQSYFKTIEELQQKILTAKAENAR,2.04

row,Variant,protein stability index
1,YQSYFKTIEELQQKILVAKAENAR,1.37
2,YQSYFKTIEELQQKILWAKAENAR,2.94
3,YQSYFKTIEELQQKILYAKAENAR,2.15
4,YQSYFKTIEELQQKILCCKAENAR,2.5
5,YQSYFKTIEELQQKILCDKAENAR,2.16
6,YQSYFKTIEELQQKILCEKAENAR,1.45
7,YQSYFKTIEELQQKILCFKAENAR,2.75
8,YQSYFKTIEELQQKILCGKAENAR,1.78
9,YQSYFKTIEELQQKILCHKAENAR,1.53
10,YQSYFKTIEELQQKILCIKAENAR,2.04
11,YQSYFKTIEELQQKILCKKAENAR,1.99
12,YQSYFKTIEELQQKILCLKAENAR,2.04
13,YQSYFKTIEELQQKILCNKAENAR,2.07
14,YQSYFKTIEELQQKILCPKAENAR,2.21
15,YQSYFKTIEELQQKILCQKAENAR,1.83
16,YQSYFKTIEELQQKILCRKAENAR,1.68
17,YQSYFKTIEELQQKILCTKAENAR,2.1
18,YQSYFKTIEELQQKILCVKAENAR,1.88
19,YQSYFKTIEELQQKILCWKAENAR,2.73
20,YQSYFKTIEELQQKILCYKAENAR,2.16
21,YQSYFKTIEELQQKILCAAAENAR,1.87
22,YQSYFKTIEELQQKILCACAENAR,1.78
23,YQSYFKTIEELQQKILCADAENAR,2.48
24,YQSYFKTIEELQQKILCAEAENAR,1.99

row,Variant,protein stability index
1,YQSYFKTIEELQQKILCAFAENAR,1.74
2,YQSYFKTIEELQQKILCAGAENAR,1.92
3,YQSYFKTIEELQQKILCAHAENAR,1.64
4,YQSYFKTIEELQQKILCAIAENAR,2.39
5,YQSYFKTIEELQQKILCALAENAR,2.93
6,YQSYFKTIEELQQKILCAMAENAR,2.51
7,YQSYFKTIEELQQKILCANAENAR,1.83
8,YQSYFKTIEELQQKILCAPAENAR,2.15
9,YQSYFKTIEELQQKILCAQAENAR,2.62
10,YQSYFKTIEELQQKILCARAENAR,1.91
11,YQSYFKTIEELQQKILCASAENAR,1.9
12,YQSYFKTIEELQQKILCATAENAR,1.39
13,YQSYFKTIEELQQKILCAWAENAR,2.29
14,YQSYFKTIEELQQKILCAYAENAR,1.35
15,YQSYFKTIEELQQKILCAKCENAR,2.01
16,YQSYFKTIEELQQKILCAKDENAR,2.18
17,YQSYFKTIEELQQKILCAKEENAR,2.14
18,YQSYFKTIEELQQKILCAKFENAR,1.4
19,YQSYFKTIEELQQKILCAKHENAR,2.06
20,YQSYFKTIEELQQKILCAKIENAR,1.86
21,YQSYFKTIEELQQKILCAKKENAR,2.16
22,YQSYFKTIEELQQKILCAKLENAR,2.34
23,YQSYFKTIEELQQKILCAKMENAR,2.57
24,YQSYFKTIEELQQKILCAKNENAR,1.71

row,Variant,protein stability index
1,YQSYFKTIEELQQKILCAKPENAR,1.79
2,YQSYFKTIEELQQKILCAKQENAR,1.78
3,YQSYFKTIEELQQKILCAKRENAR,1.88
4,YQSYFKTIEELQQKILCAKTENAR,1.87
5,YQSYFKTIEELQQKILCAKVENAR,1.71
6,YQSYFKTIEELQQKILCAKWENAR,1.46
7,YQSYFKTIEELQQKILCAKYENAR,1.3
8,YQSYFKTIEELQQKILCAKAANAR,2.93
9,YQSYFKTIEELQQKILCAKACNAR,2.38
10,YQSYFKTIEELQQKILCAKADNAR,1.74
11,YQSYFKTIEELQQKILCAKAFNAR,1.17
12,YQSYFKTIEELQQKILCAKAGNAR,1.03
13,YQSYFKTIEELQQKILCAKAHNAR,2.24
14,YQSYFKTIEELQQKILCAKAINAR,1.29
15,YQSYFKTIEELQQKILCAKAKNAR,1.99
16,YQSYFKTIEELQQKILCAKALNAR,2.17
17,YQSYFKTIEELQQKILCAKAMNAR,1.26
18,YQSYFKTIEELQQKILCAKANNAR,1.69
19,YQSYFKTIEELQQKILCAKAPNAR,2.14
20,YQSYFKTIEELQQKILCAKAQNAR,1.89
21,YQSYFKTIEELQQKILCAKARNAR,2.12
22,YQSYFKTIEELQQKILCAKASNAR,1.96
23,YQSYFKTIEELQQKILCAKATNAR,2.05
24,YQSYFKTIEELQQKILCAKAVNAR,2.42

row,Variant,protein stability index
1,YQSYFKTIEELQQKILCAKAYNAR,1.27
2,YQSYFKTIEELQQKILCAKAEAAR,1.69
3,YQSYFKTIEELQQKILCAKAECAR,2.04
4,YQSYFKTIEELQQKILCAKAEDAR,2.54
5,YQSYFKTIEELQQKILCAKAEEAR,1.89
6,YQSYFKTIEELQQKILCAKAEFAR,2.17
7,YQSYFKTIEELQQKILCAKAEGAR,1.36
8,YQSYFKTIEELQQKILCAKAEHAR,1.81
9,YQSYFKTIEELQQKILCAKAEKAR,2.22
10,YQSYFKTIEELQQKILCAKAELAR,2.26
11,YQSYFKTIEELQQKILCAKAEMAR,1.59
12,YQSYFKTIEELQQKILCAKAEPAR,1.89
13,YQSYFKTIEELQQKILCAKAEQAR,2.09
14,YQSYFKTIEELQQKILCAKAERAR,1.43
15,YQSYFKTIEELQQKILCAKAESAR,2.46
16,YQSYFKTIEELQQKILCAKAETAR,2.4
17,YQSYFKTIEELQQKILCAKAEYAR,1.59
18,YQSYFKTIEELQQKILCAKAENCR,1.39
19,YQSYFKTIEELQQKILCAKAENDR,2.08
20,YQSYFKTIEELQQKILCAKAENER,2.71
21,YQSYFKTIEELQQKILCAKAENFR,2.72
22,YQSYFKTIEELQQKILCAKAENGR,1.96
23,YQSYFKTIEELQQKILCAKAENHR,2.93
24,YQSYFKTIEELQQKILCAKAENIR,1.65

row,Variant,protein stability index
1,YQSYFKTIEELQQKILCAKAENKR,2.17
2,YQSYFKTIEELQQKILCAKAENLR,2.01
3,YQSYFKTIEELQQKILCAKAENMR,1.88
4,YQSYFKTIEELQQKILCAKAENNR,1.55
5,YQSYFKTIEELQQKILCAKAENPR,2.38
6,YQSYFKTIEELQQKILCAKAENQR,2.17
7,YQSYFKTIEELQQKILCAKAENRR,2.06
8,YQSYFKTIEELQQKILCAKAENSR,2.05
9,YQSYFKTIEELQQKILCAKAENTR,1.64
10,YQSYFKTIEELQQKILCAKAENVR,1.32
11,YQSYFKTIEELQQKILCAKAENYR,1.87
12,YQSYFKTIEELQQKILCAKAENAA,1.52
13,YQSYFKTIEELQQKILCAKAENAC,1.59
14,YQSYFKTIEELQQKILCAKAENAD,1.16
15,YQSYFKTIEELQQKILCAKAENAE,1.32
16,YQSYFKTIEELQQKILCAKAENAF,1.91
17,YQSYFKTIEELQQKILCAKAENAG,1.16
18,YQSYFKTIEELQQKILCAKAENAH,2.2
19,YQSYFKTIEELQQKILCAKAENAI,2.17
20,YQSYFKTIEELQQKILCAKAENAK,1.93
